T1: PUF4 RNA-binding domain (Saccharomyces cerevisiae, UniProt P25339 537-888)
T1 sequence: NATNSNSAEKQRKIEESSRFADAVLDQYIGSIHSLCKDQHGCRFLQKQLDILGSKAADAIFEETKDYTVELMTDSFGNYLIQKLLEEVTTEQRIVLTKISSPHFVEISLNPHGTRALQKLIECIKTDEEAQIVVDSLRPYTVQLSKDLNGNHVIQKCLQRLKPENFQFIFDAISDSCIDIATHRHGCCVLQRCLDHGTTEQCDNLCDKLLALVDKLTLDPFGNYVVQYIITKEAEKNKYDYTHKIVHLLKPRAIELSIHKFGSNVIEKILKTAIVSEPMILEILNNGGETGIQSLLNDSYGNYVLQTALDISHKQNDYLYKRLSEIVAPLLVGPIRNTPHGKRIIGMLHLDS


Target: T1, PUF4 RNA-binding domain
Assay: Mg; RNA-MaP; 20 mM Na-HEPES pH 7.4, 30 mM KOAc, 0.75 mM MgCl2, 0.1% Tween-20, 5% glycerol, 0.1 mg/mL BSA, 2 mM DTT; 25 C; 0.0125-409.6 nM protein
Conditions: tags: N-His6-TEV cleaved; C-SNAP kept, Cy3B-labelled; label: tethered on chip by stalled RNA polymerase

| Binder | Kd |
| --- | --- |
| Ic_S2_P3E.1_K3.1_C3.1_H3.1_A3.1_[T5G]_[A6T]_F3.1_[T7G]_[A8C]_T3.1 (ssRNA) RNA: UUUGAUUAAUAUGAUAUCGUUCUUUCUUGUAGUGCUUCUUUCUCGAUAUCAUAUUAAUCUUU | 390 nM |
| Ic_S2_P3E.1_K3.1_C3.1_H3.1_A3.1_[T5C]_[A6C]_F3.1_[T7C]_[A8T]_T3.1 (ssRNA) RNA: UUUGAUUAAUAUGAUAUCGUUCUUUCUUGUACCCUUUCUUUCUCGAUAUCAUAUUAAUCUUU | 12.6 nM |
| Ic_S2_P3E.1_K3.1_C3.1_H3.1_A3.1_[T5C]_[A6C]_F3.1_[T7A]_[A8T]_T3.1 (ssRNA) RNA: UUUGAUUAAUAUGAUAUCGUUCUUUCUUGUACCAUUUCUUUCUCGAUAUCAUAUUAAUCUUU | 3.72 nM |
| Ic_S2_P3E.1_K3.1_C3.1_H3.1_A3.1_[T5C]_[A6G]_F3.1_[A8T]_T3.1 (ssRNA) RNA: UUUGAUUAAUAUGAUAUCGUUCUUUCUUGUACGUUUUCUUUCUCGAUAUCAUAUUAAUCUUU | 14.5 nM |
| Ic_S2_P3E.1_K3.1_C3.1_H3.1_A3.1_[T5C]_[A6G]_F3.1_[T7C]_[A8C]_T3.1 (ssRNA) RNA: UUUGAUUAAUAUGAUAUCGUUCUUUCUUGUACGCCUUCUUUCUCGAUAUCAUAUUAAUCUUU | 126 nM |
| Ic_S2_P3E.1_K3.1_C3.1_H3.1_A3.1_[T5C]_[A6C]_F3.1_[T7A]_T3.1 (ssRNA) RNA: UUUGAUUAAUAUGAUAUCGUUCUUUCUUGUACCAAUUCUUUCUCGAUAUCAUAUUAAUCUUU | 30.1 nM |
| Ic_S2_P3E.1_K3.1_C3.1_H3.1_A3.1_[T5G]_[A6C]_F3.1_[T7A]_T3.1 (ssRNA) RNA: UUUGAUUAAUAUGAUAUCGUUCUUUCUUGUAGCAAUUCUUUCUCGAUAUCAUAUUAAUCUUU | 506 nM |
| Ic_S2_P3E.1_K3.1_C3.1_H3.1_A3.1_[T5G]_[A6C]_F3.1_[T7C]_[A8T]_T3.1 (ssRNA) RNA: UUUGAUUAAUAUGAUAUCGUUCUUUCUUGUAGCCUUUCUUUCUCGAUAUCAUAUUAAUCUUU | 63.9 nM |
| Ic_S2_P3E.1_K3.1_C3.1_H3.1_A3.1_[T5G]_[A6T]_F3.1_[A8C]_T3.1 (ssRNA) RNA: UUUGAUUAAUAUGAUAUCGUUCUUUCUUGUAGUUCUUCUUUCUCGAUAUCAUAUUAAUCUUU | 191 nM |
| Ic_S2_P3E.1_K3.1_C3.1_H3.1_A3.1_[T5C]_[A6T]_F3.1_[T7G]_[A8C]_T3.1 (ssRNA) RNA: UUUGAUUAAUAUGAUAUCGUUCUUUCUUGUACUGCUUCUUUCUCGAUAUCAUAUUAAUCUUU | 381 nM |
| Ic_S2_P3E.1_K3.1_C3.1_H3.1_A3.1_[T5G]_[A6C]_F3.1_[A8T]_T3.1 (ssRNA) RNA: UUUGAUUAAUAUGAUAUCGUUCUUUCUUGUAGCUUUUCUUUCUCGAUAUCAUAUUAAUCUUU | 18.6 nM |
| Ic_S2_P3E.1_K3.1_C3.1_H3.1_A3.1_[T5G]_[A6T]_F3.1_[A8T]_T3.1 (ssRNA) RNA: UUUGAUUAAUAUGAUAUCGUUCUUUCUUGUAGUUUUUCUUUCUCGAUAUCAUAUUAAUCUUU | 23.2 nM |
| Ic_S2_P3E.1_K3.1_C3.1_H3.1_A3.1_[T5G]_[A6C]_F3.1_[T7A]_[A8G]_T3.1 (ssRNA) RNA: UUUGAUUAAUAUGAUAUCGUUCUUUCUUGUAGCAGUUCUUUCUCGAUAUCAUAUUAAUCUUU | 754 nM |
| Ic_S2_P3E.1_K3.1_C3.1_H3.1_A3.1_[T5C]_[A6T]_F3.1_[T7G]_[A8G]_T3.1 (ssRNA) RNA: UUUGAUUAAUAUGAUAUCGUUCUUUCUUGUACUGGUUCUUUCUCGAUAUCAUAUUAAUCUUU | 1390 nM |
| Ic_S2_P3E.1_K3.1_C3.1_H3.1_A3.1_[T5G]_[A6T]_F3.1_[T7C]_[A8T]_T3.1 (ssRNA) RNA: UUUGAUUAAUAUGAUAUCGUUCUUUCUUGUAGUCUUUCUUUCUCGAUAUCAUAUUAAUCUUU | 70.3 nM |
| UCUCUUUGUAACCUUUUCUCUU (ssRNA) [Ic_S1_P5E.1_K5.1_C5.1_H5.1_A5.1_[T5A]_[T6C]_[A7C]_F5.1_[A10T]_T5.1] | 49.8 nM |
| UCUCUUUGUAGCCCAUUCUCUU (ssRNA) [Ic_S1_P5E.1_K5.1_C5.1_H5.1_A5.1_[T5G]_[T6C]_[A7C]_F5.1_[T8C]_[T9A]_[A10T]_T5.1] | 1530 nM |
| UCUCUUUGUACUGCAUUCUCUU (ssRNA) [Ic_S1_P5E.1_K5.1_C5.1_H5.1_A5.1_[T5C]_[A7G]_F5.1_[T8C]_[T9A]_[A10T]_T5.1] | 534 nM |
| UCUCUUUGUAGUAAUUUCUCUU (ssRNA) [Ic_S1_P5E.1_K5.1_C5.1_H5.1_A5.1_[T5G]_F5.1_[T8A]_[A10T]_T5.1] | 1270 nM |
| UCUCUUUGUACAUUCGUCUCUU (ssRNA) [Ic_S1_P5E.1_K5.1_C5.1_H5.1_A5.1_[T5C]_[T6A]_[A7T]_F5.1_[T9C]_[A10G]_T5.1] | 9.95 nM |
| UCUCUUUGUAACGUCUUCUCUU (ssRNA) [Ic_S1_P5E.1_K5.1_C5.1_H5.1_A5.1_[T5A]_[T6C]_[A7G]_F5.1_[T9C]_[A10T]_T5.1] | 2100 nM |
| UCUCUUUGUAUCAGCCUCUCUU (ssRNA) [Ic_S1_P5E.1_K5.1_C5.1_H5.1_A5.1_[T6C]_F5.1_[T8G]_[T9C]_[A10C]_T5.1] | 918 nM |
| UCUCUUAGUAUGUAUCUCUU (ssRNA) [Ib_S1_P3E.1_K3.1_C3.1_H3.1_[T1A]_A3.1_[A6G]_F3.1_T3.1] | 381 nM |
| UCUCUUUGUACUCUAUUCUCUU (ssRNA) [Ic_S1_P5E.1_K5.1_C5.1_H5.1_A5.1_[T5C]_[A7C]_F5.1_[T9A]_[A10T]_T5.1] | 3.85 nM |
| UCUCUUUGUAACUAUCUCUCUU (ssRNA) [Ic_S1_P5E.1_K5.1_C5.1_H5.1_A5.1_[T5A]_[T6C]_[A7T]_F5.1_[T8A]_[A10C]_T5.1] | 113 nM |
| UCUCUUUGUACAAUGGUCUCUU (ssRNA) [Ic_S1_P5E.1_K5.1_C5.1_H5.1_A5.1_[T5C]_[T6A]_F5.1_[T9G]_[A10G]_T5.1] | 12.5 nM |

From PMC9352680, “A comprehensive thermodynamic model for RNA binding by the Saccharomyces cerevisiae Pumilio protein PUF4”
